Assay results taken from patent US20200339680A1 (Alector, published 2020).
Numbering of substitutions follows the chain as printed.

B1: TM-14 (antibody, V domains shown)
VH: QVQLQQSGPELVRPGTSVKVSCKASGYAFTNYLIEWVKQRPGQGLEWIGVINPGGGNTDYSEKFKDKATLTADKSSNTAYIQLSSLTSEDSAVYFCARSPYSSYVGYAVDYWGQGTSVTVSS
VL: DIQMTQSPSSLSASLGERVSLTCRASQDIGSNLNWLQQEPDGTIKRLIYATSSLDSGVPKRFSGSRSGSDYSLTISSLESEDFVVYYCLQYASSPRTFGGGTRLEIK
notes: mouse IgG (hybridoma)
B2: TM-17 (antibody, V domains shown)
VH: QVQLQQSGAELIRPGTSVKVSCKASGYAFTDYLIEWVKQRPGQGLEWIGVINPGSGGTNYNEKFKGKAKLTADKSSSTAYMQLSSLTSEDSAVYFCVRSSYGVYVAYPMDYWGQGTSVTVSS
VL: B1 VL with V85D, R103K
B3: TM-15 (antibody, V domains shown)
VH: QVQLQQPGAEFVRPGASVKLSCKASGYTFTNYWITWVKQRPGHGLEWIGDIYPGSGNSNYNESFKRKATLTVDTSSSTAYMHLSSQTSEDSAVYFCARKAYGGFPYWGQGTLVTVSA
VL: DIQMTQSPASLSVSVGETVTITCRVSENIYNNLAWYQQKQEKSPQLLVFAATNLADGVPSRFSGSGSGTQFSLKINSLQSEDFGTYYCQHFWDTPFTFGSGTKLEIK
notes: mouse IgG (hybridoma)
B4: TM-18 (antibody, V domains shown)
VH: EVRLQQSGPELVKPGASVKISCKTSGYTFTDYYMNWVKQSHGKSLEWIVNINPNNGDAFYNQKFKGKATLTVDKSSNTAYLDLRSLTSEDSAVYYCAREGQLRLRRVYAMDYWGQGTSVTVSS
VL: DIVLAQSPASLAVSLGQRATISCRASKSVSISVYTYVHWYQQKPGQPPKLLIYLASNLESGVPARFSGSGSGTDFTLNIHPVEEEDAATYYCQHSRELPYTFGGGTKLEIK
B5: TM-11 (antibody, V domains shown)
VH: QVQLKQSGPGQVQPSQSLSITCTVSGFSLSDYGVHWVRQSPGKGLEWLGVIWNNGNTDYNAAFISRLSINKDNSKSQVFFKMTSLQADDTAIYYCVRSLRPLHFDYWGQGTTVTVSS
VL: DIVMTQSPSSLTMSVGQKVTMHCKSSQSLLNSNNLQNYLAWYQQKPGQSPTLLVYFASIRESGVPDRFIGSGSGTDFTLTISSVQAEDLADYFCQQHYNTPFTFGSGTKLEIR
B6: TM-12 (antibody, V domains shown)
VH: EVQLQQSGAELMRPGASVKLSCTASGFNIQDYYMYWVKQRPEQGLEWIGRIDPEDGDAEYAPKFQGKATMTADTSSNTAYLQLSSLTSEDTAVYYCSTRVIYDGYYRTMDCWGQGTSVTVSS
VL: DVLMTQIPLSLPVSLGDQASISCRSSQTIVHSNGNTYLEWYLKKPGQSPKLLIDKISNRFSGVPDRFSGSGSGTDFTLKISRVEAEDLGVYYCFQGSHVPYTFGGGTKLEIK

Biological target: T1, human TMEM106B (human, UniProt Q9NUM4 2-274)
T1 construct: full-length, transiently expressed on HEK293 cells, or natively expressed on HeLa, U251 and A549 cells (the cell is named under assay); also the source of the Pepscan peptides; also called huTMEM106B; huTMEM
Assay: FACS HEK+huTMEM 0.1 ug/ml (2nd column so headed);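 further: flow cytometry binding of purified anti-TMEM106B mouse IgG to HEK293 cells transiently transfected with TMEM106B, read as median fluorescence intensity on live (propidium iodide-negative) cells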
Protocol: (§1) Purified anti-TMEM106B antibodies were evaluated for their binding affinity to various TMEM106B-expressing cell lines including HEK293 transiently transfected with human/cyno/mouse TMEM106B, as well as HeLa cells and A549 cells. Antibodies tested for this experiment were mouse IgGs purified from hybridoma supernatant. Affinity binding to cells was determined as follows. Briefly, 1×10\hat{ }5 cells were aliquoted per well in 96-well round bottom plates and incubated with 50 μL of purified anti-TMEM106B antibody at various concentrations (10× dilutions starting at 10 μg/ml) in FACS buffer (PBS+2% FBS+1 mM EDTA). […] Sorting was performed on a iQue (Intellicyt), with sort gates drawn to exclude dead (propidium iodide+) cells. Binding data was analyzed using median fluorescent intensity (MFI) and graphed in Prism. Values presented are MFI.

Row | Binder | MFI
1 | B1 | 314 MFI
2 | B2 | 1150 MFI
3 | B3 | 584 MFI
4 | B4 | 1740 MFI
5 | B5 | 4280 MFI
6 | B6 | 3340 MFI

Biological target: T1, human TMEM106B
Assay: FACS HEK+huTMEM 1.0 ug/ml;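 further: binding of purified mouse IgG antibodies to HEK293 cells transiently expressing human TMEM106B, read by flow cytometry as median fluorescence intensity of live, propidium iodide-negative cells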
Protocol: as §1

Row | Binder | MFI
7 | B1 | 680 MFI
8 | B2 | 2620 MFI
9 | B3 | 14300 MFI
10 | B4 | 67300 MFI
11 | B5 | 54600 MFI
12 | B6 | 77800 MFI

Biological target: T2, mouse TMEM106B (mouse, UniProt Q80X71 2-275)
T2 construct: transiently expressed on HEK293 cells, or native on mouse Neuro2a cells; also called moTMEM106B; murine TMEM106B
Assay: FACS Neuro2a;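 further: flow cytometry of antibody binding to cells: hybridoma supernatant or purified antibody at 10 µg/ml, 1 h on ice, secondary detection, propidium iodide–positive dead cells gated out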
Protocol: (§2) All cells were cultured in either T75 or T150 flasks. […] The enzyme was quenched by addition of fresh media, and the cells were then distributed into 96-well plates for FACS analysis.
(§3) FACS analysis was performed as follows. Each cell type was aliquoted in 96-well round bottom plates (2×10^5 cells per well), washed once with FACS buffer (PBS+2% FBS+1 mM EDTA), and incubated with 50 μL of hybridoma supernatant or purified antibody (10 μg/ml in FACS buffer) on ice for 1 hour. […] Following this secondary incubation, the cells were again washed 2× with ice-cold FACS buffer and resuspended in a final volume of 50 μL of FACS buffer+0.25 μl/well propidium iodide (Fisher Scientific #4BDB556463). Analysis was performed on a FACSCanto system (BD Biosciences) or iQue (Intellicyt), with sort gates drawn to exclude dead (i.e., propidium iodide positive) cells.

Row | Binder | MFI
13 | B1 | 300 MFI
14 | B2 | 385 MFI
15 | B3 | 470 MFI
16 | B4 | 1930 MFI
17 | B5 | 1040 MFI
18 | B6 | 3040 MFI

Biological target: T1, human TMEM106B
Assay: FACS A549;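 further: flow cytometry of cells incubated on ice for 1 h with hybridoma supernatant or purified antibody at 10 µg/mL, dead propidium iodide-positive cells gated out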
Protocol: as §2, §3

Row | Binder | MFI
19 | B1 | 896 MFI
20 | B2 | 953 MFI
21 | B3 | 938 MFI
22 | B4 | 1490 MFI
23 | B5 | 1340 MFI
24 | B6 | 1940 MFI

Biological target: T1, human TMEM106B
Assay: FACS A549 1 ug/ml
Protocol: as §1

Row | Binder | MFI
25 | B1 | 409 MFI
26 | B2 | 379 MFI
27 | B3 | 650 MFI
28 | B4 | 2620 MFI
29 | B5 | 2870 MFI
30 | B6 | 3150 MFI

Biological target: T1, human TMEM106B
Assay: FACS HEK+huTMEM 10 ug/ml;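 further: flow cytometric binding of purified mouse IgG antibodies to HEK293 cells transiently expressing human TMEM106B, read as median fluorescence intensity on live cells with propidium iodide-positive cells excluded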
Protocol: as §1

Row | Binder | MFI
31 | B1 | 1190 MFI
32 | B2 | 3960 MFI
33 | B3 | 63100 MFI
34 | B4 | 71700 MFI
35 | B5 | 57900 MFI
36 | B6 | 75300 MFI

Biological target: T1, human TMEM106B
Assay: FACS A549 10 ug/ml
Protocol: as §1

Row | Binder | MFI
37 | B1 | 438 MFI
38 | B2 | 425 MFI
39 | B3 | 1980 MFI
40 | B4 | 5190 MFI
41 | B5 | 5580 MFI
42 | B6 | 4950 MFI

Biological target: T1, human TMEM106B
Assay: FACS HEK+huTMEM 0.1 ug/ml;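 further: flow cytometry binding of purified mouse IgG antibodies to HEK293 cells transiently expressing TMEM106B, read as median fluorescence intensity on live cells (propidium iodide negative gating)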
Protocol: as §1

Row | Binder | MFI
43 | B1 | 364 MFI
44 | B2 | 1910 MFI
45 | B3 | 2060 MFI
46 | B4 | 10600 MFI
47 | B5 | 16200 MFI
48 | B6 | 19700 MFI

Biological target: T1, human TMEM106B
Assay: FACS HeLa
Protocol: as §2, §3

Row | Binder | MFI
49 | B1 | 307 MFI
50 | B2 | 437 MFI
51 | B3 | 660 MFI
52 | B4 | 1920 MFI
53 | B5 | 1870 MFI
54 | B6 | 2660 MFI

Biological target: T1, human TMEM106B
Assay: FACS U251
Protocol: as §2, §3

Row | Binder | MFI
55 | B1 | 270 MFI
56 | B2 | 305 MFI
57 | B3 | 382 MFI
58 | B4 | 874 MFI
59 | B5 | 866 MFI
60 | B6 | 1330 MFI
